Measured values as given in publication PMC2695463, “Conformational flexibility and molecular interactions of an archaeal homologue of the Shwachman-Bodian-Diamond syndrome protein”.

Target: T1, mthSBDS (Methanothermobacter thermautotrophicus, UniProt O26781 1-232, R175M)
T1 sequence: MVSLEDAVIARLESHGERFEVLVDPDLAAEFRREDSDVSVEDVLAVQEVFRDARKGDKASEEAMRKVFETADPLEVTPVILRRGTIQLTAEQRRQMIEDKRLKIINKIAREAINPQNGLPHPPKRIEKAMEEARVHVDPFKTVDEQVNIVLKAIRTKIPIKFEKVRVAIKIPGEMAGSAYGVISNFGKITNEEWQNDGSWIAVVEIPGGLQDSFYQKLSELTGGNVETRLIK
Test: EMSA; SPR: 10 mM HEPES pH 7.5, 150 mM NaCl, 5 uM EDTA, 0.05% P20, +/- 5 mM MgCl2, temperature not stated; SELEX: 25 mM Tris pH 7.5, 0.5 M NaCl; EMSA: protein 1e-12 to 1e-4 M, buffer not stated
Details: protein: recombinant; tags: N-terminal 19-aa extension with His6 (pET28a)

AAAAAAAAAAAAAAAAAAAAAAAAAAAAAA (ssRNA) [30-base poly(A) RNA]
binding result: no binding
